Source: paper PMC5397176

Molecular target: Cy3–Cy5 labeled nucleosome containing H3KC36me3 (human) (UniProt Q71DI3)
Assay: other fluorescence titration

## PHF1(2–87) (domain or fragment)
  Kd: 20 µM
  S1/2 of the PHF1(2–87) titration at constant LexA: 16 µM
